Data reported in patent EP4659810A1 (Université de Strasbourg, dated 2025).
Where a chain is given by its changes, count along the chain named.

T1: VP1 on entire replicative virions of BK virus genotype Ia (Dunlop strain; ATCC VR-837) (BK virus genotype Ia (Dunlop strain), UniProt P03088 1-362)
T1 sequence: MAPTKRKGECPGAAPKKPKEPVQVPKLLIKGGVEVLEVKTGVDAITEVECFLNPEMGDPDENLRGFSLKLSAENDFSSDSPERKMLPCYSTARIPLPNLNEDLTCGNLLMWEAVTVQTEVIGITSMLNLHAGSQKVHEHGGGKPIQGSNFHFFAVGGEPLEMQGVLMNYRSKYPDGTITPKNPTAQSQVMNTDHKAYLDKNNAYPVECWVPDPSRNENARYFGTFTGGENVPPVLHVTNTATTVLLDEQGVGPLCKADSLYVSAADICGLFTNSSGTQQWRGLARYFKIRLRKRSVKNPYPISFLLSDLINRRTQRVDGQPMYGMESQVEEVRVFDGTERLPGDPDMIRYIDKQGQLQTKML

T2: VP1 on BKV genotype II pseudovirions (GBR-12; AB263920) (BK virus genotype II (GBR-12; AB263920), UniProt P14996 1-362)
T2 chain: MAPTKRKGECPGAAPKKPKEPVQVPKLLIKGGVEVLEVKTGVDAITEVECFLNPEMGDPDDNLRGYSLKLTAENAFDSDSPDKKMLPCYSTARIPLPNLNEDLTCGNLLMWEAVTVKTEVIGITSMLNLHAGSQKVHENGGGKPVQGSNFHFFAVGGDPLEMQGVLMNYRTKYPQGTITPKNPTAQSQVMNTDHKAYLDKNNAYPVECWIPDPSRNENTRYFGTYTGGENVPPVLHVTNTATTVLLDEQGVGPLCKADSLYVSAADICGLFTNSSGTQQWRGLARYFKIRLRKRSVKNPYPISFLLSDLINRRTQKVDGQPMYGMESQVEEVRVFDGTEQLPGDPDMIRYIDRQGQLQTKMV

T3: VP1 on BKV genotype Ia pseudovirions (BK-D; JF894228) (BK virus genotype Ia (BK-D; JF894228), UniProt P03088 1-362)
T3 sequence: T1 sequence

B1: monoclonal antibody D10P4 (antibody, V domains shown)
VH: EVQLLESGGGLVQPGGSLRLSCVASGFSIRGYAMNWVRQAPGKGLEWVSSLTSNGATTYYADSVKGRFTISRDNSKNTLFLQMHSLRGEDTAVYYCAKDRDAEWLGSEPFDPWGQGTLVTVSS
VL: EIVLTQSPGTLSLSPGERATLSCRASQRVSSSYLAWYQHKFGQAPRLLIYGASRRATGIPDRFSGSGSGTDFTLTISRLEPEDFAVYYCQQYGSSPRSFGQGTKLEIK
B2: monoclonal antibody E3P7 (antibody, V domains shown)
VH: EVQLLESGGGLVQPGGSLRLSCAASGFSFRSYAMNWVRQAPGKGLEWVSSLNSAGVSTYYAESVKGRFTISRDNSKNTLYLQMNSLRGEDTAVYYCAKDRGVEWLGSEPIDPWGQGTLVTVSS
VL: B1 VL with S32N, F41P, G51R, R54S
B3: monoclonal antibody D6P7 (antibody, V domains shown)
VH: B2 VH with S28N, A33G, N52R, A54S, S57T, E62D, G101D, V102A, I110F
VL: B1 VL with R28S, V29L, S31N, F41P, Q43L, G51D, R54S, G67E, S95P
notes: Human mAb in human-IgG (heavy, kappa) expression plasmids, made in HEK293F
B4: monoclonal antibody G5P4 (antibody, V domains shown)
VH: B1 VH with I29L, K43R, T58A, S75F, F80Y, K98R, L118M
VL: not shown
notes: as for B3

Legend:
[1] = target: VP1 on entire replicative virions of BKV genotype II (patient's isolate) (BK virus genotype II); experiment: cell-based or functional assay
[2] = target: T1, VP1 on entire replicative virions of BK …; experiment: cell-based or functional assay
[3] = target: T2, VP1 on BKV genotype II pseudovirions …; experiment: cell-based or functional assay
[4] = target: T4, VP1 pentamer of BKV genotype IV (BK virus genotype IV); experiment: BLI (OctetRED96e), biotinylated VP1 pentamer on streptavidin sensor, mAb 0 to 40 nM in solution
T4 construct: Obtained by gene synthesis and subcloned into pESPRIT002; also called VP1 pentamer from genotype IV

[5] = target: T3, VP1 on BKV genotype Ia pseudovirions …; experiment: cell-based or functional assay

Row | Binder | IC50, neutralization of fully replicative BKV virions (MRC5 cells) [1] | IC50, neutralization of fully replicative BKV virions (MRC5 cells) [2] | IC50, neutralization of BKV pseudovirions (luciferase, 293TT cells) [3] | Kd [4] | IC50, neutralization of BKV pseudovirions (luciferase, 293TT cells) [5]
1 | B1 | 0.05 ng/mL | 0.06 ng/mL |  |  | 
2 | B2 | 0.005 ng/mL | 0.03 ng/mL |  |  | 
3 | B3 |  |  | 0.2 ng/mL | 32.1 nM | 
4 | B4 |  |  |  | 136 nM | 0.2 ng/mL
